Test results as given in paper PMC4882459.

Tests used:
[1] = biological target: ES-62 (Acanthocheilonema viteae); assay: SEC; HPLC on a G4000SW column in HBSC buffer (1 mM CaCl2); ES-62 injected, with or without CRP at 20 ug/ml in the column buffer, or with EDTA
[2] = biological target: Biotinylated C-reactive protein (human) (UniProt P02741); assay: SPR; Biacore 3000; biotinylated CRP or SAP captured to 200 RU on streptavidin on a CM5 chip; ES-62 flowed at 30 ul/min in HBS pH 7.4 with 1 mM CaCl2 and 0.005% P20; regeneration with 3 mM EDTA; ka and kd calculated separately
Biotinylated C-reactive protein (human), sequence (P02741 19-224): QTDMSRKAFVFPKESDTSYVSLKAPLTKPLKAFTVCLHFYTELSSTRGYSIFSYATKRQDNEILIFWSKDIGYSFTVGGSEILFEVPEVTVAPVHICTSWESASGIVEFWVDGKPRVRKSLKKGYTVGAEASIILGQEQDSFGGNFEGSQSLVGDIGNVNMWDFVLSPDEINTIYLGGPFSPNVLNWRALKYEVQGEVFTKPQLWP

In the case of ES-62 (natural protein), the stoichiometry N [1] is reported as 4, the koff [2] is reported as 0.0013 to 0.0014 s⁻¹ and the kon [2] is reported as 100000 to 1e+06 M⁻¹ s⁻¹.
